One assay addresses T1, 야생형의 SIRPα (Homo sapiens (Human), UniProt P78324 31-149, limits assumed).
T1 construct: also called wtSIRPα; wild-type SIRPα
Kind of assay: western blot.

Assay [1] addresses T2, 서열번호 2의 아미노산 서열을 포함하는 SIRPα 변이체 (Homo sapiens (Human), UniProt P78324 31-149).
T2 construct: Engineered SIRPα variant; also called vSIRPα; vSIRPα antigen
T2 chain: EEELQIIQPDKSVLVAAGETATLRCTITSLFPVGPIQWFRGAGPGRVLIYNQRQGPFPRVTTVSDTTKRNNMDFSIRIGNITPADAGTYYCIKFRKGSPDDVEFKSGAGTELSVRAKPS
Kind of assay: indirect ELISA, vSIRPα (SEQ ID NO 2) coated at 1.0 ug/ml, anti-mouse IgG Fcγ-peroxidase secondary. In general terms: ELISA stands for enzyme-linked immunosorbent assay.

B1: 항-vSIRPα 단일클론 항체 (SIRPα 변이체 특이적인 단일클론 항체) (antibody, V domains shown)
VH: EVQLQQSGPELVKPGASVKISCKASGYSFTGYYMHWVKQSHVKSLEWIGRINPYNGATNYNQNFKDKASLTLDKSSSTAYVELHSLTSEDSAVYYCTRNDGYYWYFDVWGAGTTVTVSS
VL: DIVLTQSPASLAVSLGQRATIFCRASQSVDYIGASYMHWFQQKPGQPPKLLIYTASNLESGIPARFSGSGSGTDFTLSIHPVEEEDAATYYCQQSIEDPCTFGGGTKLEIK
notes: Two clones were selected; also called 제작된 2종 항체; 개발한 항체 2종
As to B1, the binding result with 야생형의 SIRPα is given as “no binding”; in assay [1], “binds”.

The values above are taken from patent publication KR20240034954A (dated 2024).
